According to US20120034160A1 (AbbVie / Abbott, published 2012):

T1: Recombinant Human IL-17 (human, UniProt Q16552 20-155, limits assumed)
T1 sequence (looked up): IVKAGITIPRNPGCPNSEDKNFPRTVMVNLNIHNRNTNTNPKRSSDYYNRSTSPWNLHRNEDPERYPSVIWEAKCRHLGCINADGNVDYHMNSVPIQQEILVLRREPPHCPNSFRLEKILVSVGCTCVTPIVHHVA


Assays:
[1] = biological target: Recombinant Human IL-1β (human, UniProt P01584 117-269); experiment: cell-based or functional assay
[2] = biological target: T1, Recombinant Human IL-17; experiment: cell-based or functional assay

Binder | N-Terminal VD IL-1β Neutralization Assay EC50 [1] | C-terminal VD IL-17 Neutralization Assay EC50 [2] | C-Terminal VD IL-1β Neutralization Assay EC50 [1] | N-terminal VD IL-17 Neutralization Assay EC50 [2]
DVD1623 (bispecific antibody, human IgG1, kappa) heavy: not shown light: DTQVTQSPSSLSASVGDRVTITCITSTDIDVDMNWYQQKPGKPPKLLISQGNTLRPGVPSRFSSSGSGTDFTFTISSLQPEDFATYYCLQSDNLPLTFGQGTKLEIKRTVAAPDIQMTQSPSSLSASVGDRVTITCRASSGIISYIDWFQQKPGKAPKRLIYATFDLASGVPSRFSGSGSGTDYTLTISSLQPEDFATYYCRQVGSYPETFGQGTKLEIKRTVAAPSVFIFPPSDEQLKSGTASVVCLLNNFYPREAKVQWKVDNALQSGNSQESVTEQDSKDSTYSLSSTLTLSKADYEKHKVYACEVTHQGLSSPVTKSFNRGEC | 0.16 nM | 0.0238 nM |  | 
DVD1627 (bispecific antibody, human IgG1, kappa) heavy: not shown light: ETTVTQSPSSLSASVGDRVTITCITSTDIDVDMNWYQQKPGKPPKLLISQGNTLRPGVPSRFSSSGSGTDFTFTISSLQPEDFATYYCLQSDNLPLTFGQGTKLEIKRTVAAPDIQMTQSPSSLSASVGDRVTITCRASSGIISYIDWFQQKPGKAPKRLIYATFDLASGVPSRFSGSGSGTDYTLTISSLQPEDFATYYCRQVGSYPETFGQGTKLEIKRTVAAPSVFIFPPSDEQLKSGTASVVCLLNNFYPREAKVQWKVDNALQSGNSQESVTEQDSKDSTYSLSSTLTLSKADYEKHKVYACEVTHQGLSSPVTKSFNRGEC | 0.621 nM | 0.0586 nM |  | 
DVD1625 (bispecific antibody, human IgG1, kappa) heavy: not shown light: DTVVTQSPAFLSVTPGEKVTITCITSTDIDVDMNWYQQKPDQPPKLLISQGNTLRPGVPSRFSSSGSGTDFTFTISSLEAEDAATYYCLQSDNLPLTFGQGTKLEIKRTVAAPDIQMTQSPSSLSASVGDRVTITCRASSGIISYIDWFQQKPGKAPKRLIYATFDLASGVPSRFSGSGSGTDYTLTISSLQPEDFATYYCRQVGSYPETFGQGTKLEIKRTVAAPSVFIFPPSDEQLKSGTASVVCLLNNFYPREAKVQWKVDNALQSGNSQESVTEQDSKDSTYSLSSTLTLSKADYEKHKVYACEVTHQGLSSPVTKSFNRGEC | 0.522 nM | 0.0076 nM |  | 
DVD1620 (bispecific antibody, human IgG1, kappa) heavy: not shown light: DIQMTQSPSSLSASVGDRVTITCRASSGIISYIDWFQQKPGKAPKRLIYATFDLASGVPSRFSGSGSGTDYTLTISSLQPEDFATYYCRQVGSYPETFGQGTKLEIKRTVAAPDIQMTQSPSSLSASVGDRVTITCRASGNIHNYLTWYQQTPGKAPKLLIYNAKTLADGVPSRFSGSGSGTDYTFTISSLQPEDIATYYCQHFWSIPYTFGQGTKLQITRTVAAPSVFIFPPSDEQLKSGTASVVCLLNNFYPREAKVQWKVDNALQSGNSQESVTEQDSKDSTYSLSSTLTLSKADYEKHKVYACEVTHQGLSSPVTKSFNRGEC |  |  | 17.4 nM | 0.0067 nM
DVD1622 (bispecific antibody, human IgG1, kappa) heavy: not shown light: DIQMTQSPSSLSASVGDRVTITCRASSGIISYIDWFQQKPGKAPKRLIYATFDLASGVPSRFSGSGSGTDYTLTISSLQPEDFATYYCRQVGSYPETFGQGTKLEIKRTVAAPDIQMTQSPSSLSASVGDRVTITCRASGNIHNYLTWYQQTPGKAPKLLIYNAKTLADGVPSRFSGSGSGTDYTFTISSLQPEDIATYYCQHFWSIPYTFGQGTKLQITRTVAAPSVFIFPPSDEQLKSGTASVVCLLNNFYPREAKVQWKVDNALQSGNSQESVTEQDSKDSTYSLSSTLTLSKADYEKHKVYACEVTHQGLSSPVTKSFNRGEC |  |  | 3.92 nM | 0.0083 nM
DVD1621 (bispecific antibody, human IgG1, kappa) heavy: not shown light: DIQMTQSPSSLSASVGDRVTITCRASGNIHNYLTWYQQTPGKAPKLLIYNAKTLADGVPSRFSGSGSGTDYTFTISSLQPEDIATYYCQHFWSIPYTFGQGTKLQITRTVAAPDIQMTQSPSSLSASVGDRVTITCRASSGIISYIDWFQQKPGKAPKRLIYATFDLASGVPSRFSGSGSGTDYTLTISSLQPEDFATYYCRQVGSYPETFGQGTKLEIKRTVAAPSVFIFPPSDEQLKSGTASVVCLLNNFYPREAKVQWKVDNALQSGNSQESVTEQDSKDSTYSLSSTLTLSKADYEKHKVYACEVTHQGLSSPVTKSFNRGEC | 0.0114 nM | 0.0397 nM |  | 
DVD1644 (bispecific antibody, human IgG1, kappa) heavy: not shown light: EIVLTQSPDFQSVTPKEKVTITCRASQNIGSELHWYQQKPDQSPKLLIKYASHSISGVPSRFSGSGSGTDFTLTINGLEAEDAATYYCHQSDTLPHTFGQGTKVDIKRTVAAPDTQVTQSPSSLSASVGDRVTITCITSTDIDVDMNWYQQKPGKPPKLLISQGNTLRPGVPSRFSSSGSGTDFTFTISSLQPEDFATYYCLQSDNLPLTFGQGTKLEIKRTVAAPSVFIFPPSDEQLKSGTASVVCLLNNFYPREAKVQWKVDNALQSGNSQESVTEQDSKDSTYSLSSTLTLSKADYEKHKVYACEVTHQGLSSPVTKSFNRGEC |  |  | 1.08 nM | 0.0122 nM
DVD1624 (bispecific antibody, human IgG1, kappa) heavy: not shown light: DIQMTQSPSSLSASVGDRVTITCRASSGIISYIDWFQQKPGKAPKRLIYATFDLASGVPSRFSGSGSGTDYTLTISSLQPEDFATYYCRQVGSYPETFGQGTKLEIKRTVAAPDTQVTQSPSSLSASVGDRVTITCITSTDIDVDMNWYQQKPGKPPKLLISQGNTLRPGVPSRFSSSGSGTDFTFTISSLQPEDFATYYCLQSDNLPLTFGQGTKLEIKRTVAAPSVFIFPPSDEQLKSGTASVVCLLNNFYPREAKVQWKVDNALQSGNSQESVTEQDSKDSTYSLSSTLTLSKADYEKHKVYACEVTHQGLSSPVTKSFNRGEC |  |  | > 20 nM | 0.0042 nM
DVD1628 (bispecific antibody, human IgG1, kappa) heavy: not shown light: DIQMTQSPSSLSASVGDRVTITCRASSGIISYIDWFQQKPGKAPKRLIYATFDLASGVPSRFSGSGSGTDYTLTISSLQPEDFATYYCRQVGSYPETFGQGTKLEIKRTVAAPETTVTQSPSSLSASVGDRVTITCITSTDIDVDMNWYQQKPGKPPKLLISQGNTLRPGVPSRFSSSGSGTDFTFTISSLQPEDFATYYCLQSDNLPLTFGQGTKLEIKRTVAAPSVFIFPPSDEQLKSGTASVVCLLNNFYPREAKVQWKVDNALQSGNSQESVTEQDSKDSTYSLSSTLTLSKADYEKHKVYACEVTHQGLSSPVTKSFNRGEC |  |  | 5.85 nM | 0.0163 nM
DVD1629 (bispecific antibody, human IgG1, kappa) heavy: not shown light: DIQMTQSPSSLSASVGDRVTITCRASGNIHNYLTWYQQTPGKAPKLLIYNAKTLADGVPSRFSGSGSGTDYTFTISSLQPEDIATYYCQHFWSIPYTFGQGTKLQITRTVAAPEIVLTQSPDFQSVTPKEKVTITCRASQDIGSELHWYQQKPDQPPKLLIKYASHSTSGVPSRFSGSGSGTDFTLTINGLEAEDAGTYYCHQTDSLPYTFGPGTKVDIKRTVAAPSVFIFPPSDEQLKSGTASVVCLLNNFYPREAKVQWKVDNALQSGNSQESVTEQDSKDSTYSLSSTLTLSKADYEKHKVYACEVTHQGLSSPVTKSFNRGEC | 0.0126 nM | 0.359 nM |  | 
DVD1631 (bispecific antibody, human IgG1, kappa) heavy: not shown light: DIQMTQSPSSLSASVGDRVTITCRASGNIHNYLTWYQQTPGKAPKLLIYNAKTLADGVPSRFSGSGSGTDYTFTISSLQPEDIATYYCQHFWSIPYTFGQGTKLQITRTVAAPEIVLTQSPDFQSVTPKEKVTITCRASQDIGSELHWYQQKPDQPPKLLIKYASHSTSGVPSRFSGSGSGTDFTLTINGLEAEDAGTYYCHQTDSLPYTFGPGTKVDIKRTVAAPSVFIFPPSDEQLKSGTASVVCLLNNFYPREAKVQWKVDNALQSGNSQESVTEQDSKDSTYSLSSTLTLSKADYEKHKVYACEVTHQGLSSPVTKSFNRGEC | 0.00417 nM | 0.46 nM |  | 
DVD1626 (bispecific antibody, human IgG1, kappa) heavy: not shown light: DIQMTQSPSSLSASVGDRVTITCRASSGIISYIDWFQQKPGKAPKRLIYATFDLASGVPSRFSGSGSGTDYTLTISSLQPEDFATYYCRQVGSYPETFGQGTKLEIKRTVAAPDTVVTQSPAFLSVTPGEKVTITCITSTDIDVDMNWYQQKPDQPPKLLISQGNTLRPGVPSRFSSSGSGTDFTFTISSLEAEDAATYYCLQSDNLPLTFGQGTKLEIKRTVAAPSVFIFPPSDEQLKSGTASVVCLLNNFYPREAKVQWKVDNALQSGNSQESVTEQDSKDSTYSLSSTLTLSKADYEKHKVYACEVTHQGLSSPVTKSFNRGEC |  |  | 17.4 nM | 0.0064 nM
DVD1630 (bispecific antibody, human IgG1, kappa) heavy: not shown light: EIVLTQSPDFQSVTPKEKVTITCRASQDIGSELHWYQQKPDQPPKLLIKYASHSTSGVPSRFSGSGSGTDFTLTINGLEAEDAGTYYCHQTDSLPYTFGPGTKVDIKRTVAAPDIQMTQSPSSLSASVGDRVTITCRASGNIHNYLTWYQQTPGKAPKLLIYNAKTLADGVPSRFSGSGSGTDYTFTISSLQPEDIATYYCQHFWSIPYTFGQGTKLQITRTVAAPSVFIFPPSDEQLKSGTASVVCLLNNFYPREAKVQWKVDNALQSGNSQESVTEQDSKDSTYSLSSTLTLSKADYEKHKVYACEVTHQGLSSPVTKSFNRGEC |  |  | 9.38 nM | 0.0041 nM
DVD1632 (bispecific antibody, human IgG1, kappa) heavy: not shown light: EIVLTQSPDFQSVTPKEKVTITCRASQDIGSELHWYQQKPDQPPKLLIKYASHSTSGVPSRFSGSGSGTDFTLTINGLEAEDAGTYYCHQTDSLPYTFGPGTKVDIKRTVAAPDIQMTQSPSSLSASVGDRVTITCRASGNIHNYLTWYQQTPGKAPKLLIYNAKTLADGVPSRFSGSGSGTDYTFTISSLQPEDIATYYCQHFWSIPYTFGQGTKLQITRTVAAPSVFIFPPSDEQLKSGTASVVCLLNNFYPREAKVQWKVDNALQSGNSQESVTEQDSKDSTYSLSSTLTLSKADYEKHKVYACEVTHQGLSSPVTKSFNRGEC |  |  | 0.438 nM | 0.0065 nM
